This note sets out measurements from article PMC11452484.

The target of data set [1] is short pAgo (SPARSA Ago subunit);Sir2-APAZ (Geobacter sulfurreducens;Geobacter …, UniProt Q74DF5;Q74DF6 1-473;1-587, |). The data set is described as follows: SEC. On the technique in general: Size exclusion chromatography separates by hydrodynamic size, large species first.
In data set [2] the target is short pAgo (SPARSA Ago subunit);Sir2-APAZ N142A (Geobacter sulfurreducens;Geobacter …, UniProt Q74DF5;Q74DF6 1-473;1-587, |N142A). In words: cryo-EM structure.

B1: gRNA-target ssDNA (DNA:RNA)
RNA: AUUCCUGUUAGAGCUGUUAAC
DNA: AAGTTAACAGCTCTAACAGGAATAA
modifications: 5'-phosphate on guide RNA
Consider B1, for which the binding result in data set [1] and in data set [2] was “binds” each time.
